From the supplement of paper PMC11246515
± gives the standard deviation of the averaged measurements.

Assay: total protein half-life in vivo (active degradation + dilution); higher = more stable protein
[1] = E. coli NCM3722 delta-clpP delta-lon delta-hslV, growth: N-lim chemostat, doubling time 6 h
[2] = E. coli NCM3722 delta-clpP, growth: N-lim chemostat, doubling time 6 h
[3] = E. coli NCM3722 delta-hslV, growth: N-lim chemostat, doubling time 6 h
[4] = E. coli NCM3722 delta-lon, growth: N-lim chemostat, doubling time 6 h
[5] = E. coli NCM3722 delta-smpB, growth: N-lim chemostat, doubling time 6 h
[6] = wild type E. coli NCM3722, growth: C-lim chemostat, doubling time 3 h
[7] = wild type E. coli NCM3722, growth: C-lim chemostat, doubling time 6 h
[8] = wild type E. coli NCM3722, growth: C-lim chemostat, doubling time 12 h
[9] = wild type E. coli NCM3722, growth: N-lim chemostat, doubling time 6 h
[10] = wild type E. coli NCM3722, growth: N-lim chemostat, doubling time 12 h
[11] = wild type E. coli NCM3722, growth: P-lim chemostat, doubling time 6 h
[12] = wild type E. coli NCM3722, growth: P-lim chemostat, doubling time 12 h

Substance | total protein half-life in vivo [1] | total protein half-life in vivo [2] | total protein half-life in vivo [3] | total protein half-life in vivo [4] | total protein half-life in vivo [5] | total protein half-life in vivo [6] | total protein half-life in vivo [7] | total protein half-life in vivo [8] | total protein half-life in vivo [9] | total protein half-life in vivo [10] | total protein half-life in vivo [11] | total protein half-life in vivo [12]
MDNLDVICIGAAIVDIPLQPVSKNIFDVDSYPLERIAMTTGGDAINEATIISRLGHRTALMSRIGKDAAGQFILDHCRKENIDIQSLKQDVSIDTSINVGLVTEDGERTFVTNRNGSLWKLNIDDVDFARFSQAKLLSLASIFNSPLLDGKALTEIFTQAKARQMIICADMIKPRLNETLDDICEALSYVDYLFPNFAEAKLLTGKETLDEIADCFLACGVKTVVIKTGKDGCFIKRGDMTMKVPAVAGITAIDTIGAGDNFASGFIAALLEGKNLRECARFANATAAISVLSVGATTGVKNRKLVEQLLEEYEG | 4.78 h | 4.22 h | 5.06 ± 0.82 h | 4.44 ± 0.44 h | 4.11 ± 0.23 h | 3.18 ± 0.49 h | 5.08 ± 0.33 h | 10.1 ± 0.27 h | 4.39 ± 0.065 h | 7.58 ± 0.17 h | 3.97 h | 7.77 ± 1.9 h
P76578 | 6.589 ± 0.03 h | – | 6.54 ± 0.12 h | 6.81 ± 0.67 h | 6.09 ± 0.11 h | 3.08 ± 0.13 h | 6.17 ± 0.39 h | 13.4 ± 0.82 h | 6.17 ± 0.06 h | 13.1 ± 0.32 h | 6.16 ± 0.085 h | 12.7 ± 0.14 h
MTTSMLNAKLLPTAPSAAVVVVRVVVVVGNAP | 3.54 h | – | – | – | – | – | – | – | – | – | – | –
MKYKLLPCLLAIFLTGCDRTEVTLSFTPEMASFSNEFDFDPLRGPVKDFTQTLMDEQGEVTKRVSGTLSEEGCFDSLELLDLENNTVVALVLDANYYRDAETLEKRVRLQGKCQLAELPSAGVSWETDDNGFVIKASSKQMQMEYRYDDQGYPLGKTTKSNDKTLSVSATPSTDPIKKLDYTAVTLLNNQRVGNVKQSCEYDSHANPVDCQLIIVDEGVKPAVERVYTIKNTIDYY | 2.15 ± 0.28 h | 2 ± 0.022 h | 2.16 ± 0.13 h | 1.87 h | 1.81 ± 0.19 h | 1.64 ± 0.1 h | 2.38 ± 0.077 h | 2.85 ± 0.52 h | 2.24 ± 0.56 h | 2.51 ± 0.27 h | 2.13 ± 0.32 h | 3.98 ± 0.97 h
MADLDDIKDGKDFRTDQPQKNIPFTLKGCGALDWGMQSRLSRIFNPKTGKTVMLAFDHGYFQGPTTGLERIDINIAPLFEHADVLMCTRGILRSVVPPATNRPVVLRASGANSILAELSNEAVALSMDDAVRLNSCAVAAQVYIGSEYEHQSIKNIIQLVDAGMKVGMPTMAVTGVGKDMVRDQRYFSLATRIAAEMGAQIIKTYYVEKGFERIVAGCPVPIVIAGGKKLPEREALEMCWQAIDQGASGVDMGRNIFQSDHPVAMMKAVQAVVHHNETADRAYELYLSEKQ | 4.41 ± 0.29 h | 3.51 ± 0.53 h | 3.03 ± 0.036 h | 3.91 ± 0.79 h | 3.6 ± 0.39 h | 3.27 ± 0.084 h | 5.1 ± 0.23 h | 8.52 ± 0.53 h | 3.58 h | 4.43 ± 0.74 h | 5.44 ± 0.21 h | 11 ± 0.47 h
MFGKGGLGNLMKQAQQMQEKMQKMQEEIAQLEVTGESGAGLVKVTINGAHNCRRVEIDPSLLEDDKEMLEDLVAAAFNDAARRIEETQKEKMASVSSGMQLPPGFKMPF [P0A8B5] | 6.29 ± 0.61 h | 4.38 ± 0.044 h | 3.59 ± 0.49 h | 4.57 ± 0.16 h | 3.28 ± 0.64 h | 2.68 ± 0.07 h | 4.44 ± 0.19 h | 7.56 ± 0.1 h | 3.02 ± 0.071 h | 5.05 ± 0.83 h | 4.24 ± 0.68 h | 9.46 ± 0.42 h
MTKKLHIKTWGCQMNEYDSSKMADLLDATHGYQLTDVAEEADVLLLNTCSIREKAQEKVFHQLGRWKLLKEKNPDLIIGVGGCVASQEGEHIRQRAHYVDIIFGPQTLHRLPEMINSVRGDRSPVVDISFPEIEKFDRLPEPRAEGPTAFVSIMEGCNKYCTYCVVPYTRGEEVSRPSDDILFEIAQLAAQGVREVNLLGQNVNAWRGENYDGTTGSFADLLRLVAAIDGIDRIRFTTSHPIEFTDDIIEVYRDTPELVSFLHLPVQSGSDRILNLMGRTHTALEYKAIIRKLRAARPDIQISSDFIVGFPGETTEDFEKTMKLIADVNFDMSYSFIFSARPGTPAADMVDDVPEEEKKQRLYILQERINQQAMAWSRRMLGTTQRILVEGTSRKSIMELSGRTENNRVVNFEGTPDMIGKFVDVEITDVYPNSLRGKVVRTEDEMGLRVAETPESVIARTRKENDLGVGYYQP [P0AEI1] | 4.82 ± 0.13 h | 2.04 ± 0.24 h | 1.57 ± 0.14 h | 2.12 ± 0.29 h | 1.54 ± 0.098 h | 1.5 ± 0.018 h | 2.18 ± 0.19 h | 2.62 ± 0.22 h | 1.632 ± 0.015 h | 2.12 ± 0.027 h | 1.97 ± 0.35 h | 3.75 ± 0.39 h
